The target in assay [1] is T1, hCoV-229E Spike antigen (human coronavirus 229E, UniProt P15423 16-1110).
T1 sequence: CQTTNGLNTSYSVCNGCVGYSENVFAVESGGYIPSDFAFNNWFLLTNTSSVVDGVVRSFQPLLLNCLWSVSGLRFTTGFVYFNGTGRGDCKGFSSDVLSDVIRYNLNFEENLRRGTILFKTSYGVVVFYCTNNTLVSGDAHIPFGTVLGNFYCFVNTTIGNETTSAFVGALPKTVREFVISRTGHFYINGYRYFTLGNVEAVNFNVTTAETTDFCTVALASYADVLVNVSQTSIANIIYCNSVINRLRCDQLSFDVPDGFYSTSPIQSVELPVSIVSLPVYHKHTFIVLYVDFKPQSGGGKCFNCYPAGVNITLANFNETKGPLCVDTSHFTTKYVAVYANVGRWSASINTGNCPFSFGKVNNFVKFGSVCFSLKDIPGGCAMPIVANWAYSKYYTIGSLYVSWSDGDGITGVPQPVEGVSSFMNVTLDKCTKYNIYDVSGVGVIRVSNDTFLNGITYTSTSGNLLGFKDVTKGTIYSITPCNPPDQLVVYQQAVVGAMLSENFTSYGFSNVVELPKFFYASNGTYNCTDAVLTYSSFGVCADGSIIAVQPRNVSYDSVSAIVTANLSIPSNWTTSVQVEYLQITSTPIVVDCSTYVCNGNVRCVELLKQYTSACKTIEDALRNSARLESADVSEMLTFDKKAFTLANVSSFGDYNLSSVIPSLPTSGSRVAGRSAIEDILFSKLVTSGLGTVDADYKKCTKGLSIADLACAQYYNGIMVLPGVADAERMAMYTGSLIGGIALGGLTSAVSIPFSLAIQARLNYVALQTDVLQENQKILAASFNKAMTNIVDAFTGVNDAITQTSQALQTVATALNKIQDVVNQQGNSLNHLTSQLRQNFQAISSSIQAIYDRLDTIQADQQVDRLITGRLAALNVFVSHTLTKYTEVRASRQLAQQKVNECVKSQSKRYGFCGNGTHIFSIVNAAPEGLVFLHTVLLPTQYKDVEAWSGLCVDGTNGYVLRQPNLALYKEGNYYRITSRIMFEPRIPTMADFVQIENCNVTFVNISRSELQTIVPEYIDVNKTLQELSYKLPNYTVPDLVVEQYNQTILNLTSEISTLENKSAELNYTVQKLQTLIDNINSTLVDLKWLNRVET
Nature of the assay: cell-based or functional assay.

Assay [2] has as its target T2, SARS-CoV-2 Spike antigen (Wuhan, wildtype) (SARS-CoV-2 (Wuhan), UniProt P0DTC2 14-1208). The assay is described as follows: cell-based or functional assay.
The target in assay [3] is T3, human coronavirus NL63 Spike antigen (human coronavirus NL63, UniProt Q6Q1S2 19-1291).
T3 sequence: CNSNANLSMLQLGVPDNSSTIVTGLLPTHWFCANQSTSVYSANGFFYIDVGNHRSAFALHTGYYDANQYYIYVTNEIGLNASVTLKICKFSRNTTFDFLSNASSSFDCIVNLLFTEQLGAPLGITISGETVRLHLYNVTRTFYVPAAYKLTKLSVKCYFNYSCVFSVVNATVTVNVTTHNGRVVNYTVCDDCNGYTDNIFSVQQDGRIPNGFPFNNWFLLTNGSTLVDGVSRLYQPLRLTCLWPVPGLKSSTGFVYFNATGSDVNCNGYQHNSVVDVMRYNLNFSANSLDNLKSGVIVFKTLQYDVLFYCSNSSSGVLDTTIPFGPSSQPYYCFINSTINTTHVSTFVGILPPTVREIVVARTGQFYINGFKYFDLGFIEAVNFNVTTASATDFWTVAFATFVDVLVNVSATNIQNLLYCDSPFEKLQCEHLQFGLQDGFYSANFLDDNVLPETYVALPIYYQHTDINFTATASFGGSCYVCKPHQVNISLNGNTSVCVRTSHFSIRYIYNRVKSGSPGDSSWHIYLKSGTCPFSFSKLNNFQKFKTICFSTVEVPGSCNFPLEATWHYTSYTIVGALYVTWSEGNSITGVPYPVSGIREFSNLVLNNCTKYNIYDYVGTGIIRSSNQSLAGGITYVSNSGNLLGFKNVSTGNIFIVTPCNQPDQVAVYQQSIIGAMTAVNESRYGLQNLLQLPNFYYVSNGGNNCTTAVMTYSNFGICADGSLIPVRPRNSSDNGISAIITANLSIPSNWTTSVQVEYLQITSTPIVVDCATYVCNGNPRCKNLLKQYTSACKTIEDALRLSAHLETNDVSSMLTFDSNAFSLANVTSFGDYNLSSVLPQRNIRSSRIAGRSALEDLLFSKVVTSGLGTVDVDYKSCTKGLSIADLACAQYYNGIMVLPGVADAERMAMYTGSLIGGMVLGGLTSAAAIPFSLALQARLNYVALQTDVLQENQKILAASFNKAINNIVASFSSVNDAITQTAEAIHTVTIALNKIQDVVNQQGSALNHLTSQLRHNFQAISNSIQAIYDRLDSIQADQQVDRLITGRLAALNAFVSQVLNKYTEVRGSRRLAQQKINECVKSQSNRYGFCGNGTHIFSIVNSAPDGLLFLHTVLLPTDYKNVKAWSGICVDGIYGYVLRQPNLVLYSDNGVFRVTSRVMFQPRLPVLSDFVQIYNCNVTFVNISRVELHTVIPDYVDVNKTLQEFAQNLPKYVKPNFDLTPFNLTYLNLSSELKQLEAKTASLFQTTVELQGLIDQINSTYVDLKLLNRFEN
Nature of the assay: cell-based or functional assay.

Assay [4] concerns the target T4, SARS-CoV-1 Spike antigen (SARS-CoV-1, UniProt P59594 14-1190). Nature of the assay: cell-based or functional assay.
The target in assay [5] is T3, human coronavirus NL63 Spike antigen. The assay is described as follows: ELISA on coated spike antigen.
The target in assay [6] is T1, hCoV-229E Spike antigen. The assay is described as follows: MSD multiplex binding assay, Coronavirus Panel 3.
In assay [7] the target is T2, SARS-CoV-2 Spike antigen (Wuhan, …). The assay is described as follows: cell-based or functional assay. This is another data set of the same source.
Assay [8] deals with T4, SARS-CoV-1 Spike antigen. Nature of the assay: cell-based or functional assay. This is another data set of the same source.
A further assay deals with T5, MERS-CoV Spike antigen (MERS-CoV, UniProt K9N5Q8 18-1291).
T5 sequence: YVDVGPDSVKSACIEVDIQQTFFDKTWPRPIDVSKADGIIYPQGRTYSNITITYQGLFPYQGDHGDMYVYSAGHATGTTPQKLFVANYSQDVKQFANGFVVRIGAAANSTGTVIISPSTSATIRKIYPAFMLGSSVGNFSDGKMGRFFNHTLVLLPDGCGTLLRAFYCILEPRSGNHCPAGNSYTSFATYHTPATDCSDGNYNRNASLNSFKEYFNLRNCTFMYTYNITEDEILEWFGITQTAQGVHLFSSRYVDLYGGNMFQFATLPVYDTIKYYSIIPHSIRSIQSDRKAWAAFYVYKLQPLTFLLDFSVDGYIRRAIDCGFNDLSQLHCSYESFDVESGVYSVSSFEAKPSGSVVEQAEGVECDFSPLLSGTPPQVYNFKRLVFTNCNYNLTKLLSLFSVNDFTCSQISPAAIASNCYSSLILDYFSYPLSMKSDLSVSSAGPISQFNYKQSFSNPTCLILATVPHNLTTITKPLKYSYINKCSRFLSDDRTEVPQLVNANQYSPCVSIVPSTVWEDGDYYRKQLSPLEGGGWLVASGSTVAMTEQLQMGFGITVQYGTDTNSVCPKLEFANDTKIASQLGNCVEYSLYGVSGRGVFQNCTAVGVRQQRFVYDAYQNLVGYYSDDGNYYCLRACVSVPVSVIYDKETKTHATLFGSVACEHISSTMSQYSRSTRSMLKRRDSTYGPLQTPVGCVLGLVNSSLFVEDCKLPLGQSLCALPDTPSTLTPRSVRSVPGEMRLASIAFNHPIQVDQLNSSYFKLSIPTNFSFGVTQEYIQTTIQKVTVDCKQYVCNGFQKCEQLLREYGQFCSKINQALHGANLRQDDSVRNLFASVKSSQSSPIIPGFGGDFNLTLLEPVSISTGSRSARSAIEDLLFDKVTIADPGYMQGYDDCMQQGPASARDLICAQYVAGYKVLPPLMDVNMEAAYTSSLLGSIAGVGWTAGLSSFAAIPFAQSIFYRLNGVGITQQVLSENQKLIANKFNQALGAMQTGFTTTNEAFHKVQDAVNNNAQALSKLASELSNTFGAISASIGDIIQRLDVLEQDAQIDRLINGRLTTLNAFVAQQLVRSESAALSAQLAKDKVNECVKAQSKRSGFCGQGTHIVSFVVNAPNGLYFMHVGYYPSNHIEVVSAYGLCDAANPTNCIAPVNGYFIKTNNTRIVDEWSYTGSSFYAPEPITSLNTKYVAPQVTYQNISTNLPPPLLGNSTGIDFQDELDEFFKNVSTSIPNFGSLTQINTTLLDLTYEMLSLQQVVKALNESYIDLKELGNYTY
Nature of the assay: cell-based or functional assay.

B1: COV30-14 (antibody, V domains shown)
VH: QVQLVQSGAEVKKPGASVKVSCQTSGYTFTSYYMHWVRQAPGQGLEWMGLITPSGDDTYYAQRFQGRVTMTRDTSTSPTYMELSSLTSEDTAVYYCAKMSRAGGFDVWGQGTLVTVSS
VL: EVVLTQSPGTLSLSPGERATLSCRASQSITGRYLAWYQQKPGQAPRLLMYGESSRVTGIPDRFSGGGSGTDFTLTISRLEPEDFAVYYCQHFASSPPTYTFGQGTKLEIR
notes: also called the antibody according to the invention; the antibody according to invention
Regarding B1, the “Pseudovirion neutralization IC50” value (with hCoV-229E Spike antigen [1]; in [3]) was more than 250 µg/mL each time. In addition, the “Pseudovirion neutralization IC50 (geometric mean)” value in assay [2] was 0.211 µg/mL; with SARS-CoV-1 Spike antigen [4], 5.89 µg/mL. For the same molecule, the binding result in [5] was “no binding (tested: range tested 10.0-0.000002 nM)”; in the assay with hCoV-229E Spike antigen [6], “no binding (tested: dilution range starting from 555 ng/ml)”. Further, the “Live virus neutralization IC50” value came to 25.4 µg/mL in assay [7], 4.95 µg/mL with SARS-CoV-1 Spike antigen [8] and 3.68 µg/mL with MERS-CoV Spike antigen.

The values above are taken from US20260234223A1 (LEYDEN LABORATORIES B V, published 2026).
